{"source": "paper PMC6928210", "about": "(Scientific Reports, 2019)", "molecules": {"B1": {"name": "AtSHMT4 (Arabidopsis thaliana) (protein)", "chain": "MEPVSSWGNTSLVSVDPEIHDLIEKEKRRQCRGIELIASENFTSFAVIEALGSALTNKYSEGIPGNRYYGGNEFIDEIENLCRSRALEAFHCDPAAWGVNVQPYSGSPANFAAYTALLQPHDRIMGLDLPSGGHLTHGYYTSGGKKISATSIYFESLPYKVNFTTGYIDYDKLEEKALDFRPKLLICGGSAYPRDWDYARFRAIADKVGALLLCDMAHISGLVAAQEAANPFEYCDVVTTTTHKSLRGPRAGMIFYRKGPKPPKKGQPEGAVYDFEDKINFAVFPALQGGPHNHQIGALAVALKQANTPGFKVYAKQVKANAVALGNYLMSKGYQIVTNGTENHLVLWDLRPLGLTGNKVEKLCDLCSITLNKNAVFGDSSALAPGGVRIGAPAMTSRGLVEKDFEQIGEFLSRAVTLTLDIQKTYGKLLKDFNKGLVNNKDLDQLKADVEKFSASYEMPGFLMSEMKYKD", "notes": "The open reading frames coding for AtSHMT2 41–517 fragment and full-length AtSHMT4 were amplified; His6 (N, cleaved yes); made in house; host or cells: E. coli BL21 Gold"}, "B2": {"name": "AtSHMT2 (Arabidopsis thaliana) (protein)", "chain": "EKSRSSWIKQLNASLDEIDPEVADIIELEKARQWKGFELIPSENFTSLSVMQAVGSVMTNKYSEGYPGARYYGGNEYIDMAETLCQKRALEAFQLDPSKWGVNVQSLSGSPANFQVYTALLKPHERIMALDLPHGGHLSHGYQTDTKKISAVSIFFETMPYRLDENTGYIDYDQLEKSAVLFRPKLIVAGASAYARLYDYARIRKVCNKQKAVMLADMAHISGLVAAGVIPSPFEYADVVTTTTHKSLRGPRGAMIFFRKGLKEINKQGKEVMYDYEDRINQAVFPGLQGGPHNHTITGLAVALKQARTPEYKAYQDQVLRNCSKFAETLLAKGYDLVSGGTDNHLVLVNLKNKGIDGSRVEKVLELVHIAANKNTVPGDVSAMVPGGIRMGTPALTSRGFIEEDFAKVAEYFDLAVKIALKIKAESQGTKLKDFVATMQSNEKLQSEMSKLREMVEEYAKQFPTIGFEKETMRYKE", "notes": "the protein N-truncated at E41; The open reading frames coding for AtSHMT2 41–517 fragment; His6 (N, cleaved yes); made in house; host or cells: E. coli BL21 Gold"}}, "key": {"[1]": {"target": "T1, AtSHMT2 (Arabidopsis thaliana, UniProt Q94C74)", "T1 construct": "the protein N-truncated at E41; The open reading frames coding for AtSHMT2 41–517 fragment; His6 (N, cleaved yes); made in house; host or cells: E. coli BL21 Gold", "T1 sequence (Q94C74 41-517)": "B2 chain", "assay": "Competitive binding assay vs 5-formyl-THF, quinonoid intermediate absorbance", "conditions": "AtSHMT2, 20 mM KPi pH 8.0, 30 °C, glycine 10 mM, 5-formyl-THF varied; read-out: Ki (inhibition constant, antifolate binding to the enzyme-glycine complex)", "from_the_text": "(§1) In this system, the obtained Ki values refer to binding of the antifolates to the enzyme-glycine complex.\n(§2) Secondary plots of slopes as functions of antifolate concentrations were obtained from fitting of inhibition data (Fig. S2). Intercept on the X-axis gives an estimate of the inhibition constant (Ki) related to antifolate binding to the enzyme-glycine complex. Since it is known that the mitochondrial matrix has an alkaline pH (pH 8[68]) as compared to the cytosol (pH 7.3[68]), inhibition measurements were performed in 20 mM KPi buffer at pH 8.0 for AtSHMT2 and pH 7.3 for AtSHMT4 at 30 °C. […] Units of slopes are μM.\n(§3) Inhibition assays were performed using 5 μM enzyme solutions. All assays were carried out at 30 °C in 20 mM KPi buffer at either pH 8.0, in the case of AtSHMT2, or pH 7.3 in the case of AtSHMT4. Methotrexate was dissolved in pure DMSO.\n(§4) The intermediate develops when both ligands bind to SHMT, forming an enzyme-glycine-folate ternary complex. […] Data were analyzed to obtain estimates of the dissociation constant (Kd) and αKd (in the presence of a saturating concentration of the other ligand) for both ligands, as reported in[31].\n(§5) The obtained data were used to produce double reciprocal plots and fitted to linear equations. […] Fitting of data was performed with the software PRISM (GraphPad, La Jolla, CA, USA). All experiments were performed in triplicate using a Hewlett-Packard 8453 diode-array spectrophotometer (Agilent Technologies, Santa Clara, CA).\n(§6) Absorbance at 505 nm (AtSHMT2) or 500 nm (AtSHMT4) from the quinonoid intermediate formed\n(§7) measured at equilibrium. Right-side charts show double reciprocal plots of data shown in left-side panels ﬁtted to a […]"}, "[2]": {"target": "T2, AtSHMT4 (Arabidopsis thaliana, UniProt O23254)", "T2 construct": "The open reading frames coding for AtSHMT2 41–517 fragment and full-length AtSHMT4 were amplified; His6 (N, cleaved yes); made in house; host or cells: E. coli BL21 Gold", "T2 sequence (O23254 1-471)": "B1 chain", "assay": "Competitive binding assay vs 5-formyl-THF, quinonoid intermediate absorbance", "conditions": "AtSHMT4, 20 mM KPi pH 7.3, 30 °C, glycine 10 mM, 5-formyl-THF varied; read-out: Ki (inhibition constant, antifolate binding to the enzyme-glycine complex)", "from_the_text": "as §1, §2, §3, §4, §5, §6, §7"}, "[3]": {"target": "hcSHMT", "conditions": "cited from earlier work"}, "[4]": {"test_system": "AtSHMT3", "design": "method as in PMID 20518745", "conditions": "read-out: KM for THF; cited from earlier work"}, "[5]": {"target": "T1, AtSHMT2", "assay": "SHMT forward reaction (serine + THF), coupled assay, initial velocity", "assay_type": "biochemical", "conditions": "read-out: KM THF; AtSHMT2, pH 6.5, 30 mM L-serine fixed, 30 °C", "description": "(§8) Figure 2 Dependence of AtSHMT2 and AtSHMT4 activity on pH. The initial velocity of the SHMT forward reaction was measured at different pH values with AtSHMT2 and AtSHMT4 (0.2 μM) using a fixed concentration of one substrate while varying the concentration of the other substrate. The fixed L-serine concentration was saturating. […] All experimental points are the average ± standard deviation of three independent measurements. […] Reactions were carried out at 30 °C.\n(§9) Activities were measured at different pH values (6.0, 7.0, 8.5 and 9.5). For pH 6.0, 7.0 and 8.5, the assays were performed in 20 mM phosphate buffer. Measurements at pH 9.5 were performed in a mixture of 50 mM MES, 50 mM HEPES, and 50 mM CHES and the final pH was adjusted with KOH."}, "[6]": {"target": "T2, AtSHMT4", "assay": "SHMT forward reaction (serine + THF), coupled assay, initial velocity", "assay_type": "biochemical", "conditions": "read-out: KM THF, 30 °C", "description": "as §8, §9"}, "[7]": {"design": "method as in PMID 9067281", "conditions": "PTX (or its polyglutamylated forms); cited from earlier work"}, "[8]": {"substrate": "N[C@@H](CO)C(=O)O", "assay": "purified protein, by the assay type", "assay_type": "biochemical, Arabidopsis thaliana", "conditions": "30 °C"}, "[9]": {"conditions": "other: AtSHMT4, pH 6.5, 30 µM THF fixed, pH 6.5"}, "[10]": {"conditions": "other: AtSHMT4, pH 7, 30 µM THF fixed, pH 7.0"}, "[11]": {"conditions": "other: AtSHMT4, pH 8, 50 µM THF fixed, pH 8.0"}, "[12]": {"conditions": "other: AtSHMT4, pH 8.5, 80 µM THF fixed, pH 8.5"}, "[13]": {"conditions": "other: AtSHMT4, pH 9.5, 100 µM THF fixed, pH 9.5"}, "[14]": {"conditions": "other: AtSHMT2, pH 6.5, 180 µM THF fixed, pH 6.5"}, "[15]": {"conditions": "other: AtSHMT2, pH 7, 180 µM THF fixed, pH 7.0"}, "[16]": {"conditions": "other: AtSHMT2, pH 8, 180 µM THF fixed, pH 8.0"}, "[17]": {"conditions": "other: AtSHMT2, pH 8.5, 180 µM THF fixed, pH 8.5"}, "[18]": {"conditions": "other: AtSHMT2, pH 9.5, 180 µM THF fixed, pH 9.5"}}, "note": "“And” between values parts separate entries of the source, which are not always exact repeats. Identical values can stand only once. Like-named read-outs stand apart in the source and are kept apart here.", "data": [{"molecule": "CN(Cc1cnc2nc(N)nc(N)c2n1)c1ccc(C(=O)N[C@@H](CCC(=O)O)C(=O)O)cc1", "note": "[MTX, methotrexate]", "values": [{"measurement": "Ki", "setting": "[1]", "result": 270, "unit": "µM"}, {"measurement": "Ki", "setting": "[2]", "result": 179, "unit": "µM"}, {"measurement": "Ki", "setting": "[3]; ref Paiardini et al.[45], read-out: KiMTX (apparent inhibition constant)", "result": 201, "unit": "µM"}]}, {"molecule": "tetrahydrofolate [THF]", "values": [{"measurement": "Km", "setting": "[4]", "result": 218, "unit": "µM"}, {"measurement": "Km", "setting": "[5]", "result": "83.6 ± 8.1", "unit": "µM"}, {"measurement": "Km", "setting": "[6]; AtSHMT4, pH 6.5, 30 mM L-serine fixed", "result": "7.87 ± 1.62", "unit": "µM"}, {"measurement": "Km", "setting": "[6]; AtSHMT4, pH 7, 30 mM L-serine fixed", "result": "15 ± 1.87", "unit": "µM"}, {"measurement": "Km", "setting": "[6]; AtSHMT4, pH 8, 30 mM L-serine fixed", "result": "23.8 ± 3.99", "unit": "µM"}, {"measurement": "Km", "setting": "[6]; AtSHMT4, pH 8.5, 30 mM L-serine fixed", "result": "33.8 ± 5.63", "unit": "µM"}]}, {"molecule": "Nc1nc2[nH]cc(CCc3ccc(C(=O)N[C@@H](CCC(=O)O)C(=O)O)cc3)c2c(=O)[nH]1", "note": "[PTX, pemetrexed]", "values": [{"measurement": "Ki", "setting": "[1]", "result": 119, "unit": "µM"}, {"measurement": "Ki", "setting": "[2]", "result": "95 µM and 95.1 µM"}, {"measurement": "Ki", "setting": "[3]; ref Daidone et al.[26], read-out: KiPTX (inhibition constant)", "result": 19.1, "unit": "µM"}, {"measurement": "Intracellular concentration", "setting": "[7]", "result": "10 to 30", "unit": "µM"}]}, {"molecule": "B1", "values": [{"measurement": "Km", "setting": "[8]; [9]", "result": "2560 ± 260", "unit": "µM"}, {"measurement": "kcat/Km", "setting": "[8]; [9]", "result": 4630, "unit": "M⁻¹ s⁻¹"}, {"measurement": "Km", "setting": "[8]; [10]", "result": "540 ± 50", "unit": "µM"}, {"measurement": "kcat/Km", "setting": "[8]; [10]", "result": 30000, "unit": "M⁻¹ s⁻¹"}, {"measurement": "Km", "setting": "[8]; [11]", "result": "300 ± 20", "unit": "µM"}, {"measurement": "kcat/Km", "setting": "[8]; [11]", "result": 57900, "unit": "M⁻¹ s⁻¹"}, {"measurement": "Km", "setting": "[8]; [12]", "result": "240 ± 20", "unit": "µM"}, {"measurement": "kcat/Km", "setting": "[8]; [12]", "result": 81500, "unit": "M⁻¹ s⁻¹"}, {"measurement": "Km", "setting": "[8]; [13]", "result": "200 ± 20", "unit": "µM"}, {"measurement": "kcat/Km", "setting": "[8]; [13]", "result": 90800, "unit": "M⁻¹ s⁻¹"}]}, {"molecule": "B2", "values": [{"measurement": "Km", "setting": "[8]; [14]", "result": "11650 ± 2030", "unit": "µM"}, {"measurement": "kcat/Km", "setting": "[8]; [14]", "result": 450, "unit": "M⁻¹ s⁻¹"}, {"measurement": "Km", "setting": "[8]; [15]", "result": "8050 ± 1360", "unit": "µM"}, {"measurement": "kcat/Km", "setting": "[8]; [15]", "result": 1010, "unit": "M⁻¹ s⁻¹"}, {"measurement": "Km", "setting": "[8]; [16]", "result": "2860 ± 300", "unit": "µM"}, {"measurement": "kcat/Km", "setting": "[8]; [16]", "result": 4530, "unit": "M⁻¹ s⁻¹"}, {"measurement": "Km", "setting": "[8]; [17]", "result": "1780 ± 220", "unit": "µM"}, {"measurement": "kcat/Km", "setting": "[8]; [17]", "result": 11600, "unit": "M⁻¹ s⁻¹"}, {"measurement": "Km", "setting": "[8]; [18]", "result": "710 ± 90", "unit": "µM"}, {"measurement": "kcat/Km", "setting": "[8]; [18]", "result": 30700, "unit": "M⁻¹ s⁻¹"}]}]}
